Sequences and labels used below:
B1: MYT1442 (antibody, V domains shown)
VH: QVQLVQSGAEVKKPGASVKMSCKASGYTFTDYYMKWVKQAPGQGLEWIGDIIPSNGATFYNQKFKGKATLTVDRSISTAYMHLNRLRSDDTAVYYCTHSHLLRASWFAYWGQGTLVTVSS
VL: DFVMTQSPDSLAVSLGERATINCKSSQSLLNSGNQKNYLTWYLQKPGQPPKLLIYWASTRESGVPDRFSGSGSGTDFTLTISSLQAEDVAVYYCQNDYSYPYTFGQGTKLEIK
notes: IgG
B2: MYT1429 (antibody, V domains shown)
VH: B1 VH with N55H, H98R
VL: B1 VL
notes: IgG
B3: MYT1440 (antibody, V domains shown)
VH: B1 VH with G66H, H98R
VL: B1 VL
notes: IgG
B4: MYT1453 (antibody, V domains shown)
VH: B1 VH with H98R, Y109H
VL: B1 VL
notes: IgG
B5: MYT1446 (antibody, V domains shown)
VH: B1 VH with H98R, L102H
VL: B1 VL
notes: IgG
B6: MYT1426 (antibody, V domains shown)
VH: B1 VH with I52H, H98R
VL: B1 VL
notes: IgG
B7: MYT1439 (antibody, V domains shown)
VH: B1 VH with K65H, H98R
VL: B1 VL
notes: IgG
B8: MYT1448 (antibody, V domains shown)
VH: B1 VH with H98R, A104H
VL: B1 VL
notes: IgG
B9: MYT1428 (antibody, V domains shown)
VH: B1 VH with S54H, H98R
VL: B1 VL
notes: IgG
B10: MYT1445 (antibody, V domains shown)
VH: B1 VH with H98R, L101H
VL: B1 VL
notes: IgG
B11: MYT1431 (antibody, V domains shown)
VH: B1 VH with A57H, H98R
VL: B1 VL
notes: IgG
B12: MYT1434 (antibody, V domains shown)
VH: B1 VH with Y60H, H98R
VL: B1 VL
notes: IgG
B13: MYT1436 (antibody, V domains shown)
VH: B1 VH with Q62H, H98R
VL: B1 VL
notes: IgG
B14: MYT1433 (antibody, V domains shown)
VH: B1 VH with F59H, H98R
VL: B1 VL
notes: IgG
B15: MYT1432 (antibody, V domains shown)
VH: B1 VH with T58H, H98R
VL: B1 VL
notes: IgG
B16: MYT1452 (antibody, V domains shown)
VH: B1 VH with H98R, A108H
VL: B1 VL
notes: IgG
B17: MYT1451 (antibody, V domains shown)
VH: B1 VH with H98R, F107H
VL: B1 VL
notes: IgG
B18: MYT1430 (antibody, V domains shown)
VH: B1 VH with G56H, H98R
VL: B1 VL
notes: IgG
B19: MYT1438 (antibody, V domains shown)
VH: B1 VH with F64H, H98R
VL: B1 VL
notes: IgG
B20: MYT1422 (antibody, V domains shown)
VH: B1 VH with M34H, H98R
VL: B1 VL
notes: IgG
B21: MYT1435 (antibody, V domains shown)
VH: B1 VH with N61H, H98R
VL: B1 VL
notes: IgG
B22: MYT1423 (antibody, V domains shown)
VH: B1 VH with K35H, H98R
VL: B1 VL
notes: IgG
B23: MYT1449 (antibody, V domains shown)
VH: B1 VH with H98R, S105H
VL: B1 VL
notes: IgG
B24: MYT1437 (antibody, V domains shown)
VH: B1 VH with K63H, H98R
VL: B1 VL
notes: IgG
B25: MYT1417 (antibody, V domains shown)
VH: B1 VH with F29H, H98R
VL: B1 VL
notes: IgG
B26: MYT1424 (antibody, V domains shown)
VH: B1 VH with D50H, H98R
VL: B1 VL
notes: IgG
B27: MYT1427 (antibody, V domains shown)
VH: B1 VH with P53H, H98R
VL: B1 VL
notes: IgG
B28: MYT1425 (antibody, V domains shown)
VH: B1 VH with I51H, H98R
VL: B1 VL
notes: IgG
B29: MYT1281 (antibody, V domains shown)
VH: QVQLVQSGAEVKKPGASVKVSCKASGYIFTSSIMHWVRQAPGQGLEWIGYIKPYNDGTKYNEKFKGRATLTSDRSTSTAYMELSSLRSEDTAVYYCARHGGNDYYDTMDYWGQGTLVTVSS
VL: DIQMTQSPSSLSASVGDRVTITCRASQDINSYLSWFQQKPGKAPKTLIYRVNRLVDGVPSRFSGSGSGNDYTLTISSLQPEDFATYYCLQYDAFPYTFGQGTKVEIK
notes: IgG

Positions count from the first letter of the chain named.

For the first test, the target named is T1, CD123 Protein, His Tag, Acro Biosciences Cat. No. ILA-H52H6 (Homo sapiens (Human), UniProt P26951 19-305).
T1 construct: Bought protein; not shown: His tag
T1 sequence: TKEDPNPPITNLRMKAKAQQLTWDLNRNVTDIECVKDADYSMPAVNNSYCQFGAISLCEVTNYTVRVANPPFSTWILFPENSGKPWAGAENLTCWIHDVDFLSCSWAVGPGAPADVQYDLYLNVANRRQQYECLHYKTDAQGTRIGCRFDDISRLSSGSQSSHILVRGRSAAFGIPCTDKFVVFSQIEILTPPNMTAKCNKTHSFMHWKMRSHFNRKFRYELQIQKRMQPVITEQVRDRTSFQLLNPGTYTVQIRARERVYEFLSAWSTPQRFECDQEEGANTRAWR
The test is described as follows: BLI, IgG on anti-human Fc sensor, 50 nM CD123, pH 7.4 and pH 5.4. The procedure, abridged:
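Single His/Ala heavy-chain CDR variants were expressed in Expi293 and captured from diluted supernatant on anti-human Fc sensors. By BLI, association with 50 nM His-tagged CD123 ran for 120 s and dissociation for 300–600 s, all in PBST pH 7.4. The full cycle was repeated separately in PBST pH 5.4.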
(In general: BLI is a label-free optical method that tracks binding on a fibre tip over time.)
On to B1, for which the binding result is given as “binds”.

B2: the binding result was “binds”.

B3: the binding result is on record as “binds”. Regarding B4, the binding result is recorded as “binds”.

Take B5: the binding result is “binds”. For B6, the binding result is given as “binds”. The same measure, in the same setting: the value for B7 was “binds”. For B8, the binding result was “binds”.

As for B9, the binding result is “binds”.

As for B10, the binding result is “binds”. With B11, the binding result is listed as “binds”. Still for that read-out and setting: the value for B12 was “binds”; that for B13 was “binds”.

On to B14, for which the binding result is “binds”. As for B15, the binding result is “binds”. In the case of B16, the binding result is reported as “binds”.

Regarding B17, the binding result is recorded as “binds”. As for B18, the binding result was “binds”. Take B19: the binding result was “binds”. Consider B20, for which the binding result is “binds”.

For B21, the binding result is “binds”. In the case of B22, the binding result is on record as “binds”. The same measure, in the same setting: the value for B23 was “binds”; that for B24 was “binds”.

The target in a further test is T1, CD123 Protein, His Tag, Acro …. The test is described as follows: BLI, IgG on anti-human Fc sensor, pH 7.4 and pH 5.4.
As for B25, the binding result is reported as “no binding (tested: 50 nM)”.

Regarding B26, the binding result is given as “no binding (tested: 50 nM)”. The same measure, in the same setting: the value for B27 was “no binding (tested: 50 nM)”; that for B28 was “no binding (tested: 50 nM)”. Turning to B29, the binding result is reported as “no binding (tested: 50 nM)”.
